Residue numbers refer to the chain shown, from its start. Numbers in names are those of the source.
Biological target: T1, GST-Ufd2 (yeast (Saccharomyces cerevisiae), UniProt P54860 1-961)
T1 construct: Ufd2, E4 ubiquitin ligase, yeast, cloned in pGEX6P-1; Cloned in pGEX6P-1; source: E. coli BL21, purified (glutathione-sepharose)
T1 sequence (looked up): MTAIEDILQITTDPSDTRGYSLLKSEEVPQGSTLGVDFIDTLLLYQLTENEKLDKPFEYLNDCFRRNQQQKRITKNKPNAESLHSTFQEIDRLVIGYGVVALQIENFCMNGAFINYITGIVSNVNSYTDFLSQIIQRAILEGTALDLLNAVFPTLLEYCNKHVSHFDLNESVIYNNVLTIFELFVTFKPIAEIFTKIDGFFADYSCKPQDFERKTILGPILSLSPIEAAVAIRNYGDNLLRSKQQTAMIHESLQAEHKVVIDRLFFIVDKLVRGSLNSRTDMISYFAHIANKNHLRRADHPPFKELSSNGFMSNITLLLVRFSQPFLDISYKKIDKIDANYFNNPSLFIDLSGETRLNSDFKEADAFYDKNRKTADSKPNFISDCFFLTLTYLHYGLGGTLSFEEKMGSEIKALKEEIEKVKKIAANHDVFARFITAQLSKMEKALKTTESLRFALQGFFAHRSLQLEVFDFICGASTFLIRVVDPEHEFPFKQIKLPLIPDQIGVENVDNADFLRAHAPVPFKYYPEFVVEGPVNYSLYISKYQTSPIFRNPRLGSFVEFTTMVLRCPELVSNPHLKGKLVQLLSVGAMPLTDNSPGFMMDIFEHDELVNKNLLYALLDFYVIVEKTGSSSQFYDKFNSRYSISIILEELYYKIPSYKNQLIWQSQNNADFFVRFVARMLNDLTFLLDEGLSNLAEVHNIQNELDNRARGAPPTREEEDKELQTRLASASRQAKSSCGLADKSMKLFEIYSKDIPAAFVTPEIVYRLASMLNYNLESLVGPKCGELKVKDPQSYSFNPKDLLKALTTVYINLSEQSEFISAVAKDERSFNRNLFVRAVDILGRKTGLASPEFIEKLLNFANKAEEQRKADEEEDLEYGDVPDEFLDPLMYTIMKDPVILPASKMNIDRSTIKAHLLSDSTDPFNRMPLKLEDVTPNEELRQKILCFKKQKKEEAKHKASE
Test: pull-down; GST-Ufd2 (40 pmol) incubated with 20 pmol Cdc48 in 100 µL 20 mM Tris-HCl pH 7.4, 50 mM NaCl, 1 mM MgCl2, 5 mM β-mercaptoethanol, 20% glycerol, 10 min at 25 °C; then glutathione-sepharose 4B 30 min at room temperature; eluted with glutathione; immunoblot with anti-Cdc48 and anti-GST
Details: both partners purified

B1: wild-type Cdc48 (N-terminally His-tagged) (natural protein, Saccharomyces cerevisiae, UniProt P25694 1-835, looked up)
chain: MGEEHKPLLDASGVDPREEDKTATAILRRKKKDNMLLVDDAINDDNSVIAINSNTMDKLELFRGDTVLVKGKKRKDTVLIVLIDDELEDGACRINRVVRNNLRIRLGDLVTIHPCPDIKYATRISVLPIADTIEGITGNLFDVFLKPYFVEAYRPVRKGDHFVVRGGMRQVEFKVVDVEPEEYAVVAQDTIIHWEGEPINREDEENNMNEVGYDDIGGCRKQMAQIREMVELPLRHPQLFKAIGIKPPRGVLMYGPPGTGKTLMARAVANETGAFFFLINGPEVMSKMAGESESNLRKAFEEAEKNAPAIIFIDEIDSIAPKRDKTNGEVERRVVSQLLTLMDGMKARSNVVVIAATNRPNSIDPALRRFGRFDREVDIGIPDATGRLEVLRIHTKNMKLADDVDLEALAAETHGYVGADIASLCSEAAMQQIREKMDLIDLDEDEIDAEVLDSLGVTMDNFRFALGNSNPSALRETVVESVNVTWDDVGGLDEIKEELKETVEYPVLHPDQYTKFGLSPSKGVLFYGPPGTGKTLLAKAVATEVSANFISVKGPELLSMWYGESESNIRDIFDKARAAAPTVVFLDELDSIAKARGGSLGDAGGASDRVVNQLLTEMDGMNAKKNVFVIGATNRPDQIDPAILRPGRLDQLIYVPLPDENARLSILNAQLRKTPLEPGLELTAIAKATQGFSGADLLYIVQRAAKYAIKDSIEAHRQHEAEKEVKVEGEDVEMTDEGAKAEQEPEVDPVPYITKEHFAEAMKTAKRSVSDAELRRYEAYSQQMKASRGQFSNFNFNDAPLGTTATDNANSNNSAPSGAGAAFGSNAEEDDDLYS
notes: Cdc48, Saccharomyces cerevisiae, wild type, cloned in pET15b; Cloned in pET15b; also called WT; yeast Cdc48
binding result: binds

B2: Cdc48 M288Y mutant (N-terminally His-tagged) (natural protein, Saccharomyces cerevisiae, UniProt P25694 1-835, looked up)
chain: B1 chain with M288Y
notes: Cdc48, Saccharomyces cerevisiae, with M288Y in the D1 pore loop, cloned in pET15b; Cloned in pET15b
binding result: binds
